B1: GpH7-A5/GpH7-B3 variant H268_13S/GpL16-k0 (antibody, human IgG1, kappa)
heavy 1: not shown
heavy 2: not shown
light: DIVMTQSPLSLPVTPGEPASISCQASESLVHSNRNTYLHWYLQKPGQSPQLLIYKVSNRFSGVPDRFSGSGSGTDFTLKISRVEAEDVGVYYCSQNTHVPPTFGQGTKVEIERTVAAPSVFIFPPSDEQLKSGTASVVCLLNNFYPREAKVQWKVDNALQSGNSQESVTEQDSKDSTYSLSSTLTLSKADYEKHKVYACEVTHQGLSSPVTKSFNRGEC
notes: Heterodimerized anti-glypican-3 IgG1; mutation in the GpH7-B3 chain only; also called He Ab
B2: GpH7-A5/GpH7-B3 variant K326_07I/GpL16-k0 (antibody, human IgG1, kappa)
heavy 1: not shown
heavy 2: not shown
light: B1 light
notes: as for B1
B3: GpH7-A5/GpH7-B3 variant K326_08L/GpL16-k0 (antibody, human IgG1, kappa)
heavy 1: not shown
heavy 2: not shown
light: B1 light
notes: as for B1
B4: GpH7-A5/GpH7-B3 variant K326_09D/GpL16-k0 (antibody, human IgG1, kappa)
heavy 1: not shown
heavy 2: not shown
light: B1 light
notes: as for B1
B5: GpH7-A5/GpH7-B3 variant K326_10E/GpL16-k0 (antibody, human IgG1, kappa)
heavy 1: not shown
heavy 2: not shown
light: B1 light
notes: as for B1
B6: GpH7-A5/GpH7-B3 variant L328_04F/GpL16-k0 (antibody, human IgG1, kappa)
heavy 1: not shown
heavy 2: not shown
light: B1 light
notes: as for B1
B7: GpH7-A5/GpH7-B3 variant L328_07I/GpL16-k0 (antibody, human IgG1, kappa)
heavy 1: not shown
heavy 2: not shown
light: B1 light
notes: as for B1
B8: GpH7-A5/GpH7-B3 variant L328_09D/GpL16-k0 (antibody, human IgG1, kappa)
heavy 1: not shown
heavy 2: not shown
light: B1 light
notes: as for B1
B9: GpH7-A5/GpH7-B3 variant L328_10E/GpL16-k0 (antibody, human IgG1, kappa)
heavy 1: not shown
heavy 2: not shown
light: B1 light
notes: as for B1
B10: GpH7-A5/GpH7-B3 variant L328_11K/GpL16-k0 (antibody, human IgG1, kappa)
heavy 1: not shown
heavy 2: not shown
light: B1 light
notes: as for B1
B11: GpH7-A5/GpH7-B3 variant L328_12R/GpL16-k0 (antibody, human IgG1, kappa)
heavy 1: not shown
heavy 2: not shown
light: B1 light
notes: as for B1
B12: GpH7-A5/GpH7-B3 variant N325_06M/GpL16-k0 (antibody, human IgG1, kappa)
heavy 1: not shown
heavy 2: not shown
light: B1 light
notes: as for B1
B13: GpH7-A5/GpH7-B3 variant N325_07I/GpL16-k0 (antibody, human IgG1, kappa)
heavy 1: not shown
heavy 2: not shown
light: B1 light
notes: as for B1
B14: GpH7-A5/GpH7-B3 variant N325_08L/GpL16-k0 (antibody, human IgG1, kappa)
heavy 1: not shown
heavy 2: not shown
light: B1 light
notes: as for B1
B15: GpH7-A5/GpH7-B3 variant N325_20W/GpL16-k0 (antibody, human IgG1, kappa)
heavy 1: not shown
heavy 2: not shown
light: B1 light
notes: as for B1
B16: GpH7-A5/GpH7-B3 variant P238_04F/GpL16-k0 (antibody, human IgG1, kappa)
heavy 1: not shown
heavy 2: not shown
light: B1 light
notes: as for B1
B17: GpH7-A5/GpH7-B3 variant P238_08L/GpL16-k0 (antibody, human IgG1, kappa)
heavy 1: not shown
heavy 2: not shown
light: B1 light
notes: as for B1

molecular target: T1, FcγRIIb (human, UniProt P31994 43-217); assay: SPR, relative to GpH7-A5/GpH7-B3/GpL16-k0
T1 construct: extracellular domain; also called FcgRIIb; 2b; not shown: His tag at the C terminus
T1 sequence (looked up): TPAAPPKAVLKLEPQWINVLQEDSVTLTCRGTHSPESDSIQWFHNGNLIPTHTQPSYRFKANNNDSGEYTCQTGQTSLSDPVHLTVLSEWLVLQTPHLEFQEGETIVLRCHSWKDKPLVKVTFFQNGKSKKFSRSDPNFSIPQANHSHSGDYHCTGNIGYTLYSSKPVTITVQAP

Binder	He/Con_2b [control = 100]
B1	160
B2	199
B3	177
B4	193
B5	200
B6	219
B7	160
B8	199
B9	172
B10	7.5
B11	9.2
B12	217
B13	171
B14	197
B15	169
B16	312
B17	204

molecular target: T2, FcγRIIa R (human, UniProt P12318 34-217); assay: SPR, relative to GpH7-A5/GpH7-B3/GpL16-k0
T2 construct: extracellular domain; also called FcgRIIa R type; 2aR; not shown: His tag at the C terminus
T2 sequence (looked up): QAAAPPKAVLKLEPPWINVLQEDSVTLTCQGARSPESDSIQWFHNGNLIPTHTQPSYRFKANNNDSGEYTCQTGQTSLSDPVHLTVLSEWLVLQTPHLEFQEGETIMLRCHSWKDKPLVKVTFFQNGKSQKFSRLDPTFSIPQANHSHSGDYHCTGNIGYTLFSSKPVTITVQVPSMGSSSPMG

Binder	He/Con_2aR [control = 100]
B1	127
B2	147
B3	137
B4	148
B5	148
B6	138
B7	124
B8	119
B9	105
B10	2.5
B11	5
B12	152
B13	133
B14	144
B15	134
B16	174
B17	140

molecular target: T2, FcγRIIa R; assay: SPR; He/Con_2aR divided by He/Con_2b (FcγRIIa R over FcγRIIb)

Binder	He_2aR/2b [ratio]
B1	0.8
B2	0.74
B3	0.77
B4	0.77
B5	0.74
B6	0.63
B7	0.78
B8	0.6
B9	0.61
B10	0.33
B11	0.54
B12	0.7
B13	0.78
B14	0.73
B15	0.79
B16	0.56
B17	0.68

— patent publication US20150344570A1 (published 2015)
